# Source: the RNAGym collection of RNA variant scans (doi:10.7554/elife.80360)
# B1: Twister Ribozyme (parent)
# chain: AACACUGCCAAUGCCGGUCCCAAGCCCGGAUAAAAGUGGAGGGGGCGG
# Variants of: B1
# Assay: self-cleavage, relative activity (ratio to wild type); higher = more cleavage; co-transcriptional
row,Variant,self-cleavage
1,A1C C19A,0.123
2,C25G U31A,0.482
3,A22U C46A,0.764
4,G17C A32C,0.0792
5,C15G G36U,0.0831
6,G13C G28U,0.255
7,G17U G45U,0.221
8,C20G C21A,0.0754
9,C9U A32U,0.585
10,A10G G28A,1.08
11,A10C G44C,0.867
12,A4U G28U,0.116
13,G16C A30C,0.363
14,A11C C19G,0.138
15,A11U U37A,1.01
16,C26A G29U,0.214
17,U37A C46G,0.748
18,C9G A10G,0.656
19,A2U G45U,0.344
20,G7A A30C,0.108
21,C5U A32C,0.887
22,A11U A33C,0.909
23,G16U A30G,0.761
24,G16U A35U,0.948

row,Variant,self-cleavage
1,C19A C26U,0.0877
2,A30U C46A,0.872
3,C9U C20A,0.0526
4,C20A A22U,0.0761
5,A2U A10U,0.604
6,U12G C26U,0.407
7,C27U G38U,0.756
8,G43C G47U,0.13
9,C3G A35G,0.317
10,G24C G36C,0.0888
11,C15A G42A,0.156
12,A30G G41C,0.37
13,U12A G42A,0.463
14,A11U G16C,0.532
15,A4U G48C,0.193
16,A2C C15U,0.088
17,C27U U31G,0.723
18,C19A A33C,0.0946
19,G13C G44C,0.185
20,A34G G45U,0.553
21,G36C G48U,0.455
22,G7A G24A,0.0655
23,C14A G39A,0.409
24,A22U A23C,0.0587

row,Variant,self-cleavage
1,G13A C19A,0.113
2,G29C U31G,0.851
3,C8G C20U,0.0992
4,A23G G44A,0.604
5,G17C A30U,0.143
6,G24C C46A,0.109
7,A2U G43A,0.128
8,U12G U37C,0.593
9,G16U G48C,1.06
10,G28C A32G,0.734
11,C3A G38C,0.297
12,C3A A4U,0.0689
13,U37C G44C,0.738
14,G17U G43U,0.12
15,G13U A33G,0.68
16,C8U G28U,0.467
17,A34C G47C,0.177
18,A4U C20A,0.0537
19,G24C A32C,0.118
20,C3G A32C,0.379
21,C26A A35C,0.572
22,C21U A22U,0.072
23,U18A G39C,0.102
24,C8G G45C,0.118

row,Variant,self-cleavage
1,C3G C5A,0.117
2,A23C A30U,0.264
3,G38C G43A,0.149
4,G38C G43U,0.242
5,G7C C46U,0.0589
6,A23C G42C,0.156
7,A33U A40G,0.154
8,C14A A32U,0.848
9,A34G G44A,0.809
10,G38A A40G,0.131
11,A32C A35U,1.05
12,C21A G28U,0.129
13,G13U G29U,0.588
14,A4U C9G,0.0806
15,G16A C46G,0.813
16,C9A A11G,0.735
17,G13A G36A,0.162
18,A1C G16C,0.192
19,A4U G16U,0.0436
20,C27U G48U,0.942
21,C27A A32U,0.446
22,G29C U37G,0.4
23,C8G G36A,0.129
24,A2G G24C,0.0995

row,Variant,self-cleavage
1,A34C G44A,0.385
2,U12G A22C,1.13
3,G29U G39A,0.417
4,U18G C46A,0.0573
5,A2U C21G,0.0765
6,A11C G44A,0.955
7,A4C G13U,0.072
8,A22C C26G,0.112
9,C14U A34G,0.885
10,C25A U37C,0.0999
11,A35C G36C,0.382
12,C15G G28C,0.599
13,A10C U12C,0.929
14,A4U A32G,0.0833
15,G7C A32U,0.0629
16,A2G C26U,0.08
17,C25G G29U,0.651
18,C26G G43A,0.128
19,C21U A35U,0.115
20,A22G G38U,0.122
21,G41C G45A,0.334
22,A10G C14A,0.975
23,A32G G45A,0.921
24,C9U G28A,0.562

row,Variant,self-cleavage
1,A2G U31A,0.328
2,A34G G43U,0.133
3,U18G A22G,0.0592
4,A11G C20A,0.117
5,G16C C25U,0.188
6,C5U A33C,0.652
7,A32G G42A,0.319
8,A30U G44C,0.963
9,A33G G48U,0.903
10,G28C G44A,0.782
11,A22U U31A,0.521
12,C3A U12A,0.0973
13,A40C C46U,0.236
14,G24A G45U,0.118
15,C27A A40G,0.145
16,C9G A34C,0.134
17,G13U G24U,0.0911
18,C8G A10C,0.872
19,A32U G43C,0.139
20,A2C G16U,0.0604
21,C21U G39A,0.0714
22,C3G G44A,0.509
23,A30U U37G,0.912
24,U18A G42U,0.161

row,Variant,self-cleavage
1,C19U G48A,0.915
2,C19G G43U,0.685
3,A11G U37G,0.494
4,C5G A33G,0.637
5,A40U G44A,0.155
6,C21G A32G,0.0254
7,A1U G17C,0.055
8,A2G A30C,0.23
9,U37C A40G,0.161
10,C14G A35C,0.244
11,C3U A11C,0.191
12,C3U A11U,0.428
13,A23U G28A,0.211
14,C25G A33G,0.148
15,U31C C46U,0.788
16,C19G C25G,0.124
17,G28U G41A,0.459
18,U18A A35C,0.445
19,U6G C19G,0
20,C8A A23C,0.0825
21,C20U G36A,0.216
22,C5U C20U,0.816
23,C15U A23G,0.297
